The values below come from US20130115170A1.

Read-outs that look alike come from different tables or passages of the source.

Test [1] has as its target T1, cholera toxin B subunit (Vibrio cholerae), P01556.
T1 chain: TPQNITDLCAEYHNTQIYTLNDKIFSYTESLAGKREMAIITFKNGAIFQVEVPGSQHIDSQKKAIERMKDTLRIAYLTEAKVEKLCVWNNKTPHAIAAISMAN
In words: solid-phase ELISA, inhibition of CTB binding to LOSGM1, peptide at 100 pmol/mL.

For test [2], the target named is T1, cholera toxin B subunit (Vibrio …).
Test [3] shares this target. In words: solid-phase ELISA, inhibition of CTB binding to GD1b, peptide at 100 pmol/mL. Background: ELISA stands for enzyme-linked immunosorbent assay.
Test [4] has the same target. As to the kind of experiment: solid-phase ELISA, inhibition of CTB binding to Lipid A, peptide at 100 pmol/mL.
Test [5] has the same target. In words: solid-phase ELISA, inhibition of CTB binding to F-GM1, peptide at 100 pmol/mL.
Test [6] has the same target. As to the kind of experiment: solid-phase ELISA, inhibition of CTB binding to GM1, peptide at its IC50 for GM1.
For test [7] the target is unchanged. In words: solid-phase ELISA, competition: peptide inhibits CTB binding to GM1.

B1: PGM1-6 (peptide)
peptide: DASKALRSSGMP
modifications: not checked
With B1, the inhibition percent in test [1], in test [2], in test [3], in test [4] and in test [5] was -0% throughout.

B2: PGM1-4 (peptide)
peptide: FPAWFTKLYPRT
modifications: not checked
With B2, the inhibition percent in test [6] is 50%. The molecule further returned an IC50 in test [7] of 77.4 nM.

B3: PGM1-5 (peptide)
peptide: QINTAKWWKTHF
modifications: not checked
Molecule B3 yielded an inhibition percent in test [6] of 50%. This molecule also showed an IC50 in test [7] of 34.4 nM.

B4: PGM1-1 (peptide)
peptide: VSWKTWFPNLAV
modifications: not checked
Regarding B4, the inhibition percent in test [6] came to 50%. Also, the IC50 in test [7] was 38 nM.

B5: PGM1-2 (peptide)
peptide: YSPFHKWFPSMH
modifications: not checked
Consider B5, for which the inhibition percent in test [6] was found to be 50%. The same molecule showed an IC50 in test [7] of 46.1 nM.

B6: PGM1-3 (peptide)
peptide: IPQVWRDWFKLP
modifications: not checked
With B6, the inhibition percent in test [6] is 50%. In test [7], this molecule displayed an IC50 of 9.6 nM.

As usually defined, the IC50 is the concentration at which inhibition is half-maximal. Read a low IC50 as greater potency in that assay.
